Measurements reported in PMC8980056, “RAGE-TXNIP axis drives inflammation in Alzheimer’s by targeting Aβ to mitochondria in microglia” (Cell Death & Disease, 2022).

B1: Dynamin-Related Protein 1 (Drp1), endogenous in LPS-primed primary microglia (natural protein, UniProt Q8K1M6 1-736, looked up)
chain: MEALIPVINKLQDVFNTVGADIIQLPQIVVVGTQSSGKSSVLESLVGRDLLPRGTGVVTRRPLILQLVHVSPEDKRKTTGEENGVEAEEWGKFLHTKNKLYTDFDEIRQEIENETERISGNNKGVSPEPIHLKVFSPNVVNLTLVDLPGMTKVPVGDQPKDIELQIRELILRFISNPNSIILAVTAANTDMATSEALKISREVDPDGRRTLAVITKLDLMDAGTDAMDVLMGRVIPVKLGIIGVVNRSQLDINNKKSVTDSIRDEYAFLQKKYPSLANRNGTKYLARTLNRLLMHHIRDCLPELKTRINVLAAQYQSLLNSYGEPVDDKSATLLQLITKFATEYCNTIEGTAKYIETSELCGGARICYIFHETFGRTLESVDPLGGLNTIDILTAIRNATGPRPALFVPEVSFELLVKRQIKRLEEPSLRCVELVHEEMQRIIQHCSNYSTQELLRFPKLHDAIVEVVTCLLRKRLPVTNEMVHNLVAIELAYINTKHPDFADACGLMNNNIEEQRRNRLARELPSAGSRDKSSKVPSALAPASQEPPPAASAEADGKLIQDNRRETKNVPSAGGGIGDGGQEPTTGNWRGMLKTSKAEELLAEEKSKPIPIMPASPQKGHAVNLLDVPVPVARKLSAREQRDCEVIERLIKSYFLIVRKNIQDSVPKAVMHFLVNHVKDTLQSELVGQLYKSSLLDDLLTESEDMAQRRKEAADMLKALQGASQIIAEIRETHLW
notes: Dynamin-Related Protein 1 (Drp1), endogenous in primary microglia; Precipitated with an anti-Drp1 antibody; seen as tetramer on a native gel; Mouse is only surmised for the primary microglia; see the supplementary methods; source: endogenous, LPS-primed primary microglia lysate
B2: Dynamin-Related Protein 1 (Drp1), endogenous in mouse hippocampus (natural protein, UniProt Q8K1M6 1-736, looked up)
chain: MEALIPVINKLQDVFNTVGADIIQLPQIVVVGTQSSGKSSVLESLVGRDLLPRGTGVVTRRPLILQLVHVSPEDKRKTTGEENGVEAEEWGKFLHTKNKLYTDFDEIRQEIENETERISGNNKGVSPEPIHLKVFSPNVVNLTLVDLPGMTKVPVGDQPKDIELQIRELILRFISNPNSIILAVTAANTDMATSEALKISREVDPDGRRTLAVITKLDLMDAGTDAMDVLMGRVIPVKLGIIGVVNRSQLDINNKKSVTDSIRDEYAFLQKKYPSLANRNGTKYLARTLNRLLMHHIRDCLPELKTRINVLAAQYQSLLNSYGEPVDDKSATLLQLITKFATEYCNTIEGTAKYIETSELCGGARICYIFHETFGRTLESVDPLGGLNTIDILTAIRNATGPRPALFVPEVSFELLVKRQIKRLEEPSLRCVELVHEEMQRIIQHCSNYSTQELLRFPKLHDAIVEVVTCLLRKRLPVTNEMVHNLVAIELAYINTKHPDFADACGLMNNNIEEQRRNRLARELPSAGSRDKSSKVPSALAPASQEPPPAASAEADGKLIQDNRRETKNVPSAGGGIGDGGQEPTTGNWRGMLKTSKAEELLAEEKSKPIPIMPASPQKGHAVNLLDVPVPVARKLSAREQRDCEVIERLIKSYFLIVRKNIQDSVPKAVMHFLVNHVKDTLQSELVGQLYKSSLLDDLLTESEDMAQRRKEAADMLKALQGASQIIAEIRETHLW
notes: Dynamin-Related Protein 1 (Drp1), mouse, endogenous in the hippocampus of 5xFAD mice; Tetramer seen on a native gel; source: endogenous, hippocampus of 5xFAD mice

How the values were obtained:
[1] = biological target: the molecule itself; assay: native gel or EMSA; western blot of native gel of Drp1 tetramer in LPS-primed primary microglia, without and with 4 h of Aβ dimers
[2] = biological target: the molecule itself; assay: native gel or EMSA; western blot of native gel of DRP1 tetramer in hippocampus of wt and 5xFAD mice (also with siTXNIP)

Protein | stoichiometry N [1] | stoichiometry N [2]
B1 | 4 | 
B2 |  | 4
